Here are results for one molecule from publication PMC12618784, “The ARVC-5-associated protein TMEM43 controls mitochondrial energy metabolism by stabilising ER-mitochondrial contact sites” (Cellular and Molecular Life Sciences: CMLS, 2025).

The target of the experiment is T1, Dmel\Tmem43wt::TurboID (Drosophila, UniProt Q9VSB9 1-376).
T1 construct: Dmel\Tmem43 (CG8111), the Drosophila homologue of human TMEM43, wild type; Generated in this study; cloning details are available upon request; also called UAS-CG8111^WT-TurboID; source: transgenic Drosophila third-instar larvae, expressed in muscle with mef2-Gal4, in vivo and in lysate
T1 sequence (looked up): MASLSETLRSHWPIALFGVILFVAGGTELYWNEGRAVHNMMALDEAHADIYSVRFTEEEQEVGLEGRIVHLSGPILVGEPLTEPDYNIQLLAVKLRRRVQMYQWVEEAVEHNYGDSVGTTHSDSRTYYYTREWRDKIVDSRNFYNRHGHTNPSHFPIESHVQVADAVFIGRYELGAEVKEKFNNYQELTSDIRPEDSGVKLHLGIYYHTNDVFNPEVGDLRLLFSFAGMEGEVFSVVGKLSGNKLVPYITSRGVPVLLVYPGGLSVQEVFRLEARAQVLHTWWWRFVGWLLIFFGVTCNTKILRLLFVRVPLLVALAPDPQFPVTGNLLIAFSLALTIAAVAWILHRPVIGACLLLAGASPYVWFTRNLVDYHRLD
Kind of experiment: proximity labelling; TurboID fusions expressed in muscle of third-instar larvae (mef2-Gal4); biotinylated proteins purified on streptavidin microbeads and identified by mass spectrometry. Conditions: partners not purified.

B1: Porin (natural protein, UniProt Q94920 1-282, looked up)
chain: MAPPSYSDLGKQARDIFSKGYNFGLWKLDLKTKTSSGIEFNTAGHSNQESGKVFGSLETKYKVKDYGLTLTEKWNTDNTLFTEVAVQDQLLEGLKLSLEGNFAPQSGNKNGKFKVAYGHENVKADSDVNIDLKGPLINASAVLGYQGWLAGYQTAFDTQQSKLTTNNFALGYTTKDFVLHTAVNDGQEFSGSIFQRTSDKLDVGVQLSWASGTSNTKFAIGAKYQLDDDASVRAKVNNASQVGLGYQQKLRDGVTLTLSTLVDGKNFNAGGHKIGVGLELEA
notes: Porin, the fly homologue of the vertebrate voltage-dependent anion channels (VDACs), outer mitochondrial membrane; also called Porin/VDAC; fly homologue of the vertebrate voltage-dependent anion channels; source: endogenous, Drosophila third-instar larval extract
With B1, the “fold stronger interaction than the p.S333L mutant (relative amounts of biotinylated protein)” value was around 8 fold.
